Test results reported in patent US20130295102A1 (Novartis, published 2013).
Positions count from the first letter of the chain named.

B1: NVS962 (Fab, V domains shown)
VH: EVQLVQSGAEVKKPGSSVKVSCKASGGTFNSYAISWVRQAPGQGLEWMGRIIPIFGTANYAQKFQGRVTITADESTSTAYMELSSLRSEDTAVYYCARHGGYSFDSWGQGTLVTVSS
VL: SYELTQPPSVSVAPGQTARISCSGDNLGSKYVDWYQQKPGQAPVLVIYSDNNRPSGIPERFSGSNSGNTATLTISGTQAEDEADYYCQTYTSGNNYLVFGGGTKLTVLG
notes: also called Fab NVS962
B2: NVS962-Q (Fab, V domains shown)
VH: B1 VH with N30Q
VL: B1 VL
notes: NVS962 with heavy chain N30 replaced with glutamine (deamidation site removed)
B3: NVS962-S31A (Fab, V domains shown)
VH: B1 VH with S31A
VL: B1 VL
notes: NVS962 with heavy chain serine 31 replaced with alanine
B4: NVS965-Q (Fab, V domains shown)
VH: B1 VH with N30Q
VL: B1 VL with E3V, Q16K, E80M, Q88A, T91D, G93S, N94P, N95R, Y96T, L97E
notes: NVS965 with heavy chain N30 replaced with glutamine
B5: NVS962-G (Fab, V domains shown)
VH: B1 VH with N30G
VL: B1 VL
notes: NVS962 with heavy chain N30 replaced with glycine
B6: NVS805 (Fab, V domains shown)
VH: B1 VH with N30S, S103V
VL: B1 VL with E3V, Q16K, E80M, Q88A, T91D, G93S, N94P, N95R, Y96T, L97E
B7: NVS965 (Fab, V domains shown)
VH: B1 VH
VL: B1 VL with E3V, Q16K, E80M, Q88A, T91D, G93S, N94P, N95R, Y96T, L97E
notes: Disulfide-bridged Fab; also called Fab NVS965
B8: NVS807 (Fab, V domains shown)
VH: B1 VH with N30S, S103Y
VL: B1 VL
B9: NVS809 (Fab, V domains shown)
VH: B1 VH with N30S, S103Y
VL: B1 VL with E3V, Q16K, E80M, Q88A, T91D, G93S, N94P, N95R, Y96T, L97E
B10: NVS804 (Fab, V domains shown)
VH: B1 VH with N30S, S103I
VL: B1 VL with E3V, Q16K, E80M, Q88A, T91D, G93S, N94P, N95R, Y96T, L97E
B11: NVS962-T (Fab, V domains shown)
VH: B1 VH with N30T
VL: B1 VL
notes: NVS962 with heavy chain N30 replaced with threonine; also called NSV962-T
B12: NVS808 (Fab, V domains shown)
VH: B1 VH with N30S, S103I
VL: B1 VL
B13: NVS962-S (Fab, V domains shown)
VH: B1 VH with N30S
VL: B1 VL
notes: NVS962 with heavy chain N30 replaced with serine
B14: NVS806 (Fab, V domains shown)
VH: B1 VH with N30S, S103V
VL: B1 VL

molecular target: Cynomolgus Factor P (cynomolgus); assay: cell-based or functional assay

Row | Binder | Hemolytic assay IC50 (nM), 10% serum [nM] | MAC Deposition, 20% Serum EC50 [nM] | Zymosan-C3b IC50 (nM), 10% serum [nM]
1 | B1 | 16.1 | 12.1 | 9.91
2 | B2 | 14.7 | 20.9 | 1.62
3 | B3 | 11.6 | 7.86 | 3.12
4 | B4 | 14.7 | 9.39 | 3.3
5 | B5 | 14.2 | 9.27 | 2.94
6 | B6 | 22.1 | 5.95 | 
7 | B7 | 13.2 | 22.2 | 6.36
8 | B8 | 12.6 | 6.35 | 
9 | B9 | 12.8 | 5.9 | 
10 | B10 | 14.4 | 8.51 | 
11 | B11 | 12.5 | 5.42 | 3.1
12 | B12 | 15.5 | 8.38 | 
13 | B13 | 12 | 15.6 | 1.94
14 | B14 | 13.9 | 6.51 | 

molecular target: T1, Human Factor P (human, UniProt P27918 29-469); assay: cell-based or functional assay
T1 sequence (P27918 29-469 limits assumed): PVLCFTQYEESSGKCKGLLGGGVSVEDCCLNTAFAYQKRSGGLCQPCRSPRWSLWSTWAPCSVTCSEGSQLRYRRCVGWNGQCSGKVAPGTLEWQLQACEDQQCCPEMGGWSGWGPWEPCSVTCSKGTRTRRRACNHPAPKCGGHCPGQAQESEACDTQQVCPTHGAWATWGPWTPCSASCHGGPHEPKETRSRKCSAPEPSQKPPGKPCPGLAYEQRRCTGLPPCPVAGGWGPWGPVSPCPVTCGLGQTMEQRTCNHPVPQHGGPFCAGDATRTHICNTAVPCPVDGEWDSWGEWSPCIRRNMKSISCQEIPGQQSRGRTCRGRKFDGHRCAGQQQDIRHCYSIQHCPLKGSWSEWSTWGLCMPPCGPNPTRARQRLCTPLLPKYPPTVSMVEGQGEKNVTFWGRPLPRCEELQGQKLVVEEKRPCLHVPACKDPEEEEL

Row | Binder | Hemolytic assay IC50 (nM), 10% serum [nM] | Inhibition of C3a generation, 20% human serum [nM] | MAC Deposition, 20% Serum EC50 [nM] | Zymosan-C3b IC50 (nM), 10% serum [nM]
15 | B1 | 13.2 | 78.4 | 18.8 | 2.63
16 | B2 | 15.3 |  | 23.1 | 0.64
17 | B3 | 12.8 |  | 9.96 | 1.15
18 | B4 | 9.71 |  | 15.4 | 1.64
19 | B5 | 13.4 |  | 12.7 | 1.18
20 | B6 | 12.8 |  | 5.9 | 
21 | B7 | 7.53 | 31.3 | 17.3 | 1.54
22 | B8 | 12.9 |  | 5.4 | 
23 | B9 | 12.1 |  | 6.46 | 
24 | B10 | 12.4 |  | 5.85 | 
25 | B11 | 9.31 |  | 6.61 | 1.75
26 | B12 | 13.3 |  | 6.51 | 
27 | B13 | 8.21 |  | 6.53 | 1.53
28 | B14 | 10.1 |  | 5.74 | 

molecular target: T2, Cynomolgus Factor P (cynomolgus); assay: Biacore SPR, captured Factor P
T2 construct: Purified from cynomolgus serum for SET/Biacore; Factor P of cynomolgus serum in the functional assays; also called Cyno Factor P; cyno FP

Row | Binder | Kd [nM] | koff [s⁻¹] | kon [M⁻¹ s⁻¹]
29 | B1 | 0.182 | 0.000279 | 1.53e+06
30 | B2 | 0.475 | 0.000264 | 555000
31 | B3 | 0.234 | 8.7e-05 | 372000
32 | B4 | 0.215 | 0.000594 | 2.77e+06
33 | B5 | 1.08 | 0.000339 | 313000
34 | B7 | 0.028 | 6.22e-05 | 2.24e+06
35 | B11 | 0.175 | 8.56e-05 | 488000
36 | B13 | 0.127 | 6.66e-05 | 524000

molecular target: T1, Human Factor P; assay: Biacore SPR, captured Factor P

Row | Binder | Kd [nM] | koff [s⁻¹] | kon [M⁻¹ s⁻¹]
37 | B1 | 0.083 | 0.000125 | 1.52e+06
38 | B2 | 0.496 | 0.000311 | 627000
39 | B3 | 0.225 | 0.000113 | 504000
40 | B4 | 0.138 | 0.000366 | 2.65e+06
41 | B5 | 1.14 | 0.00044 | 387000
42 | B6 | 0.003 | 9.88e-06 | 3.61e+06
43 | B7 | 0.016 | 4.1e-05 | 2.65e+06
44 | B8 | 0.106 | 0.000123 | 1.21e+06
45 | B9 | 0.0247 | 0.000104 | 4.25e+06
46 | B10 | 0.005 | 1.29e-05 | 2.72e+06
47 | B11 | 0.131 | 8.35e-05 | 639000
48 | B12 | 0.195 | 0.000154 | 791000
49 | B13 | 0.161 | 0.000117 | 730000
50 | B14 | 0.052 | 2.24e-05 | 434000

molecular target: T2, Cynomolgus Factor P; assay: SET, solution equilibrium titration
Protocol: (§1) In SET, a constant amount of antibody is incubated with different concentrations of antigen until equilibrium is reached. The concentration of free antibody in the equilibrated solution is determined by applying the solution on an antigen coated MSD™ plate (Meso Scale Discovery™) followed by incubation with an ECL-labeled secondary antibody and measurement of signal intensity. At low antigen concentrations, a strong signal is achieved (high concentration of free antibody which binds to the antigen on the plate) whereas for high antigen concentration, the antibody is completely antigen-captured, resulting in a low signal. If a sufficient number of antigen concentrations in a matching range are available, the titration curve allows for a reasonable determination of the affinity, using the appropriate fit model. […] The constant concentration of antibody applied in the assay should be in the range of, or below, the KD (Table 4).
(§2) Human Factor P (Complement Technology cat#: A139) and Cyno Factor P purified from cyno serum (protocol adapted from Nakano, et al., (1986) J Immunol Methods 90:77-83) were coated on standard binding MSD plates (Meso-Scale Discovery, 384-well: MSD cat#: L21XA, 96-well: MSD cat#: L15XA) at 0.2-0.3 μg/ml in 25 μl PBS and incubated overnight at 4° C. Factor P inhibitors were diluted to a fixed concentration (1 pM or 10 pM) in incubation buffer (PBS with 2% BSA (Sigma cat#: A4503) and 1% Tween20 and 1% Triton-X (Sigma cat#: 234729)), and added to a serial dilution of Factor P (human or cyno) in incubation buffer. Samples were allowed to reach equilibrium by incubation at RT overnight. Plates were washed 3× in wash buffer (PBS with 0.05% Tween20), and blocked with 100 μl incubation buffer at RT for 2 hrs. Plates were washed 3× in wash buffer. Sample containing Factor P inhibitors and Factor P titration were added to the plate (25 μl), and incubated at RT for 15 min. Plates were washed 3× in wash buffer. 25 μl detection antibody was added (Anti-Human (Goat) Sulfo-TAG, 1:1000 in incubation buffer, MSD cat#: R32AJ-1), and incubated at RT for 60 min. Plates were washed 3× in wash buffer, and 50 μl of 1×MSD Read buffer T was added (with surfactant, MSD cat#: R92TC-1). Plates were read on a MSD Spector Imager 6000.

Row | Binder | Kd [nM]
51 | B1 | 0.047
52 | B2 | 0.93
53 | B3 | 0.189
54 | B4 | 0.201
55 | B5 | 0.567
56 | B7 | 0.014
57 | B11 | 0.354
58 | B13 | 0.141

molecular target: T1, Human Factor P; assay: SET, solution equilibrium titration
Protocol: as §1, §2

Row | Binder | Kd [nM]
59 | B1 | 0.046
60 | B2 | 1.06
61 | B3 | 0.189
62 | B4 | 0.301
63 | B5 | 0.953
64 | B6 | 0.0003
65 | B7 | 0.036
66 | B8 | 0.027
67 | B9 | 0.0042
68 | B10 | 0.0008
69 | B11 | 0.251
70 | B12 | 0.107
71 | B13 | 0.156
72 | B14 | 0.018
